Reference: patent US20100028924
Changes are numbered by the printed parent chain.

Target: rHDL-apoA-I (reconstituted discoidal HDL particles carrying apolipoprotein A-I)

B1: wt rePON1-192K (protein)
chain: MAKLTALTLLGLGLALFDGQKSSFQTRFNVHREVTPVELPNCNLVKGVDNGSEDLEILPNGLAFISSGLKYPGIMSFDPDKSGKILLMDLNEEDPVVLELGITGNTLDISSFNPHGISTFTDEDNTVYLLVVNHPDSSSTVEVFKFQEEEKSLLHLKTIRHKLLPSVNDIVAVGPEHFYATNDHYFADPYLKSWEMHLGLAWSFVTYYSPNDVRVVAEGFDFANGINISPDGKYVYIAELLAHKIHVYEKHANWTLTPLKSLDFDTLVDNISVDPVTGDLWVGCHPNGMRIFYYDPKNPPGSEVLRIQDILSEEPKVTVVYAENGTVLQGSTVAAVYKGKLLIGTVFHKALYCEL
Protein B1 has an A2 (%), amplitude of the slow phase of inactivation on apoA-I rHDL of 100%, a Kapp (µM), substrate TBBL of 0.5 µM and a Kapp (µM), substrate paraoxon of 0.6 µM. For the same protein, the Kapp (µM), substrate phenyl acetate was 0.5 µM, the Kapp (µM), substrate γ-dodecanoic lactone was 1.2 µM and the Kapp (µM), substrate δ-nonanoic lactone was 1.3 µM. For the same protein, the Kapp (µM), substrate δ-valerolactone was 1.3 µM, the Vmax (%), enzymatic activation by apoA-I rHDL, substrate TBBL was 791% and the Vmax (%), enzymatic activation by apoA-I rHDL, substrate paraoxon was 222%. The Vmax (%), enzymatic activation by apoA-I rHDL, substrate phenyl acetate was 425%, the Vmax (%), enzymatic activation by apoA-I rHDL, substrate γ-dodecanoic lactone was 1830% and the Vmax (%), enzymatic activation by apoA-I rHDL, substrate δ-nonanoic lactone was 1580%. The Vmax (%), enzymatic activation by apoA-I rHDL, substrate δ-valerolactone was 1720% and the “fold higher fraction of HDL-bound protein than the Q isozyme (from inactivation/stability measurements; reference rePON1-192Q)” value was “a 3-fold higher fraction of HDL-bound protein as revealed from the stability measurements”.

B2: rePON1-192R (protein)
chain: B1 chain with K192R
With B2 the A2 (%), amplitude of the slow phase of inactivation on apoA-I rHDL was 90%, the Kapp (µM), substrate TBBL was 0.4 µM and the Kapp (µM), substrate paraoxon was 0.8 µM. The Kapp (µM), substrate phenyl acetate was 0.8 µM, the Kapp (µM), substrate γ-dodecanoic lactone was 0.9 µM and the Kapp (µM), substrate δ-nonanoic lactone was 1.5 µM. The Kapp (µM), substrate δ-valerolactone was 1.1 µM, the Vmax (%), enzymatic activation by apoA-I rHDL, substrate TBBL was 579% and the Vmax (%), enzymatic activation by apoA-I rHDL, substrate paraoxon was 200%. For the same protein, the Vmax (%), enzymatic activation by apoA-I rHDL, substrate phenyl acetate was 336%, the Vmax (%), enzymatic activation by apoA-I rHDL, substrate γ-dodecanoic lactone was 1260% and the Vmax (%), enzymatic activation by apoA-I rHDL, substrate δ-nonanoic lactone was 1350%. The Vmax (%), enzymatic activation by apoA-I rHDL, substrate δ-valerolactone was 1400%, the “fold higher fraction of HDL-bound protein than the Q isozyme (from inactivation/stability measurements; reference rePON1-192Q)” value was “a 3-fold higher fraction of HDL-bound protein as revealed from the stability measurements” and the “reduction of Vmax of stimulation by rHDL compared to wt rePON1-192K” value was 10-30% reduction of Vmax.

B3: rePON1-192Q (protein)
chain: B1 chain with K192Q
B3 showed an A2 (%), amplitude of the slow phase of inactivation on apoA-I rHDL of 70%, a Kapp (µM), substrate TBBL of 0.5 µM and a Kapp (µM), substrate paraoxon of 0.8 µM. It also gave a Kapp (µM), substrate phenyl acetate of 0.8 µM, a Kapp (µM), substrate γ-dodecanoic lactone of 0.6 µM and a Kapp (µM), substrate δ-nonanoic lactone of 0.6 µM. It also gave a Kapp (µM), substrate δ-valerolactone of 1.1 µM, a Vmax (%), enzymatic activation by apoA-I rHDL, substrate TBBL of 340% and a Vmax (%), enzymatic activation by apoA-I rHDL, substrate paraoxon of 128%. The Vmax (%), enzymatic activation by apoA-I rHDL, substrate phenyl acetate was 165%, the Vmax (%), enzymatic activation by apoA-I rHDL, substrate γ-dodecanoic lactone was 382% and the Vmax (%), enzymatic activation by apoA-I rHDL, substrate δ-nonanoic lactone was 778%. The Vmax (%), enzymatic activation by apoA-I rHDL, substrate δ-valerolactone was 481% and the “reduction of Vmax of stimulation by rHDL compared to wt rePON1-192K” value was 50-80% reduction of Vmax compared to wt rePON1-192K.

B4: human PON1-192R (protein)
chain: AKLIALTLLGMGLALFRNHQSSYQTRLNALREVQPVELPNCNLVKGIETGSEDLEILPNGLAFISSGLKYPGIKSFNPNSPGKILLMDLNEEDPTVLELGITGSKFDVSSFNPHGISTFTDEDNAMYLLVVNHPDAKSTVELFKFQEEEKSLLHLKTIRHKLLPNLNDIVAVGPEHFYGTNDHYFLDPYLRSWEMYLGLAWSYVVYYSPSEVRVVAEGFDFANGINISPDGKYVYIAELLAHKIHVYEKHANWTLTPLKSLDFNTLVDNISVDPETGDLWVGCHPNGMKIFFYDSENPPASEVLRIQNILTEEPKVTQVYAENGTVLQGSTVASVYKGKLLIGTVFHKALYCEL
In the case of B4, the A2 (%), amplitude of the slow phase of inactivation on apoA-I rHDL is reported as 87%, the “activation level of lactonase activity by rHDL-apoA-I, against 192Q” value is reported as “about 2-fold higher activation level than 192Q” and the “stated: enzymatic activity stimulated by a 50-fold molar excess of rHDl-apoA-I (% Activity Stimulation, delipidated enzyme as reference), six substrates [panel B]” value is reported as “dark bars: about 650 to 750 % with γ-dodecanoic lactone, δ-valerolactone and δ-nonanoic lactone, about 450 % with TBBL, about 200 to 250 % with phenyl acetate and paraoxon; higher than the 192Q bar with every lactone”.

B5: human PON1-192Q (protein)
chain: B4 chain with R191Q
In the case of B5, the A2 (%), amplitude of the slow phase of inactivation on apoA-I rHDL is reported as 72% and the “stated: enzymatic activity stimulated by a 50-fold molar excess of rHDl-apoA-I (% Activity Stimulation, delipidated enzyme as reference), six substrates [panel B]” value is reported as “white bars: about 280 % with γ-dodecanoic lactone, about 420 to 440 % with δ-valerolactone and δ-nonanoic lactone, about 250 % with TBBL, about 170 to 210 % with phenyl acetate and paraoxon; lower than the 192R bar with every lactone, close to it with phenyl acetate and paraoxon”.
